Laboratory results: patent US20250215412A1 (NOVOZYMES A S, published 2025)

T1: Chryseobacterium sp-62563 deamidase polypeptide (second polypeptide, deamidase domain), wildtype (Chryseobacterium sp-62563)
T1 sequence: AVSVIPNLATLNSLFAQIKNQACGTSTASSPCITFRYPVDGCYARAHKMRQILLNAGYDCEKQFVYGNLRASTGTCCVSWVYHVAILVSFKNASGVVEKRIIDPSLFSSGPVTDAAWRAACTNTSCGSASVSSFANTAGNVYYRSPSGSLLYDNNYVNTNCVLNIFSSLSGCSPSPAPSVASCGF


target: T1, Chryseobacterium sp-62563 deamidase polypeptide (second polypeptide, deamidase domain), wildtype (Chryseobacterium sp-62563); assay: cell-based or functional assay

Row | Binder | Relative activity of maturated deamidase (% initial rate) | Leakage activity [%]
1 | Chryseobacterium sp-62563 propeptide M39E (protein) NQDPNLVAKESNETAMKDFGKTVPVGIEKEDGKFKISFEVTAQPYEIKDSKENAAYISMIKTAVENETPIHVFLKANTNEIAKVDKATDDDIRYFKSVFTKEVKEENRK | 95 | –
2 | Chryseobacterium sp-62563 propeptide M39Y (protein) NQDPNLVAKESNETAMKDFGKTVPVGIEKEDGKFKISFYVTAQPYEIKDSKENAAYISMIKTAVENETPIHVFLKANTNEIAKVDKATDDDIRYFKSVFTKEVKEENRK | > 100 | –
3 | Chryseobacterium sp-62563 propeptide F38D (protein) NQDPNLVAKESNETAMKDFGKTVPVGIEKEDGKFKISDMVTAQPYEIKDSKENAAYISMIKTAVENETPIHVFLKANTNEIAKVDKATDDDIRYFKSVFTKEVKEENRK | > 100 | –
4 | Chryseobacterium sp-62563 propeptide E65P (protein) NQDPNLVAKESNETAMKDFGKTVPVGIEKEDGKFKISFMVTAQPYEIKDSKENAAYISMIKTAVPNETPIHVFLKANTNEIAKVDKATDDDIRYFKSVFTKEVKEENRK | 30 | –
5 | Chryseobacterium sp-62563 propeptide F19L (protein) NQDPNLVAKESNETAMKDLGKTVPVGIEKEDGKFKISFMVTAQPYEIKDSKENAAYISMIKTAVENETPIHVFLKANTNEIAKVDKATDDDIRYFKSVFTKEVKEENRK | 33 | –
6 | Chryseobacterium sp-62563 propeptide D18P (protein) NQDPNLVAKESNETAMKPFGKTVPVGIEKEDGKFKISFMVTAQPYEIKDSKENAAYISMIKTAVENETPIHVFLKANTNEIAKVDKATDDDIRYFKSVFTKEVKEENRK | 66 | 0
7 | Chryseobacterium sp-62563 propeptide E67F (protein) NQDPNLVAKESNETAMKDFGKTVPVGIEKEDGKFKISFMVTAQPYEIKDSKENAAYISMIKTAVENFTPIHVFLKANTNEIAKVDKATDDDIRYFKSVFTKEVKEENRK | 46 | –
8 | Chryseobacterium sp-62563 propeptide D18R (protein) NQDPNLVAKESNETAMKRFGKTVPVGIEKEDGKFKISFMVTAQPYEIKDSKENAAYISMIKTAVENETPIHVFLKANTNEIAKVDKATDDDIRYFKSVFTKEVKEENRK | 51 | 0
9 | Chryseobacterium sp-62563 propeptide M39W (protein) NQDPNLVAKESNETAMKDFGKTVPVGIEKEDGKFKISFWVTAQPYEIKDSKENAAYISMIKTAVENETPIHVFLKANTNEIAKVDKATDDDIRYFKSVFTKEVKEENRK | 44 | –
10 | Chryseobacterium sp-62563 propeptide M39Q (protein) NQDPNLVAKESNETAMKDFGKTVPVGIEKEDGKFKISFQVTAQPYEIKDSKENAAYISMIKTAVENETPIHVFLKANTNEIAKVDKATDDDIRYFKSVFTKEVKEENRK | > 100 | –
11 | Chryseobacterium sp-62563 propeptide E67C (protein) NQDPNLVAKESNETAMKDFGKTVPVGIEKEDGKFKISFMVTAQPYEIKDSKENAAYISMIKTAVENCTPIHVFLKANTNEIAKVDKATDDDIRYFKSVFTKEVKEENRK | 46 | –
12 | Chryseobacterium sp-62563 propeptide D18K (protein) NQDPNLVAKESNETAMKKFGKTVPVGIEKEDGKFKISFMVTAQPYEIKDSKENAAYISMIKTAVENETPIHVFLKANTNEIAKVDKATDDDIRYFKSVFTKEVKEENRK | 37 | 5
13 | Chryseobacterium sp-62563 propeptide F38G (protein) NQDPNLVAKESNETAMKDFGKTVPVGIEKEDGKFKISGMVTAQPYEIKDSKENAAYISMIKTAVENETPIHVFLKANTNEIAKVDKATDDDIRYFKSVFTKEVKEENRK | > 100 | –
14 | Chryseobacterium sp-62563 propeptide E30W (protein) NQDPNLVAKESNETAMKDFGKTVPVGIEKWDGKFKISFMVTAQPYEIKDSKENAAYISMIKTAVENETPIHVFLKANTNEIAKVDKATDDDIRYFKSVFTKEVKEENRK | 27 | –
15 | Chryseobacterium sp-62563 propeptide E67A (protein) NQDPNLVAKESNETAMKDFGKTVPVGIEKEDGKFKISFMVTAQPYEIKDSKENAAYISMIKTAVENATPIHVFLKANTNEIAKVDKATDDDIRYFKSVFTKEVKEENRK | 46 | –
16 | Chryseobacterium sp-62563 propeptide M39N (protein) NQDPNLVAKESNETAMKDFGKTVPVGIEKEDGKFKISFNVTAQPYEIKDSKENAAYISMIKTAVENETPIHVFLKANTNEIAKVDKATDDDIRYFKSVFTKEVKEENRK | 39 | –
17 | Chryseobacterium sp-62563 propeptide F19P (protein) NQDPNLVAKESNETAMKDPGKTVPVGIEKEDGKFKISFMVTAQPYEIKDSKENAAYISMIKTAVENETPIHVFLKANTNEIAKVDKATDDDIRYFKSVFTKEVKEENRK | 71 | 3
18 | Chryseobacterium sp-62563 propeptide D18G (protein) NQDPNLVAKESNETAMKGFGKTVPVGIEKEDGKFKISFMVTAQPYEIKDSKENAAYISMIKTAVENETPIHVFLKANTNEIAKVDKATDDDIRYFKSVFTKEVKEENRK | 62 | 0

Continued, values first:

Row | Relative activity of maturated deamidase (% initial rate) | Leakage activity [%] | Binder
19 | 54 | – | Chryseobacterium sp-62563 propeptide E67G (protein) NQDPNLVAKESNETAMKDFGKTVPVGIEKEDGKFKISFMVTAQPYEIKDSKENAAYISMIKTAVENGTPIHVFLKANTNEIAKVDKATDDDIRYFKSVFTKEVKEENRK
20 | 69 | – | Chryseobacterium sp-62563 propeptide E67D (protein) NQDPNLVAKESNETAMKDFGKTVPVGIEKEDGKFKISFMVTAQPYEIKDSKENAAYISMIKTAVENDTPIHVFLKANTNEIAKVDKATDDDIRYFKSVFTKEVKEENRK
21 | > 100 | – | Chryseobacterium sp-62563 propeptide M39H (protein) NQDPNLVAKESNETAMKDFGKTVPVGIEKEDGKFKISFHVTAQPYEIKDSKENAAYISMIKTAVENETPIHVFLKANTNEIAKVDKATDDDIRYFKSVFTKEVKEENRK
22 | > 100 | – | Chryseobacterium sp-62563 propeptide M39G (protein) NQDPNLVAKESNETAMKDFGKTVPVGIEKEDGKFKISFGVTAQPYEIKDSKENAAYISMIKTAVENETPIHVFLKANTNEIAKVDKATDDDIRYFKSVFTKEVKEENRK
23 | 34 | 0 | Chryseobacterium sp-62563 propeptide D18M (protein) NQDPNLVAKESNETAMKMFGKTVPVGIEKEDGKFKISFMVTAQPYEIKDSKENAAYISMIKTAVENETPIHVFLKANTNEIAKVDKATDDDIRYFKSVFTKEVKEENRK
24 | 27 | 0 | Chryseobacterium sp-62563 propeptide N1C (protein) CQDPNLVAKESNETAMKDFGKTVPVGIEKEDGKFKISFMVTAQPYEIKDSKENAAYISMIKTAVENETPIHVFLKANTNEIAKVDKATDDDIRYFKSVFTKEVKEENRK
25 | 32 | – | Chryseobacterium sp-62563 propeptide Y56P (protein) NQDPNLVAKESNETAMKDFGKTVPVGIEKEDGKFKISFMVTAQPYEIKDSKENAAPISMIKTAVENETPIHVFLKANTNEIAKVDKATDDDIRYFKSVFTKEVKEENRK
26 | 65 | – | Chryseobacterium sp-62563 propeptide Y45L (protein) NQDPNLVAKESNETAMKDFGKTVPVGIEKEDGKFKISFMVTAQPLEIKDSKENAAYISMIKTAVENETPIHVFLKANTNEIAKVDKATDDDIRYFKSVFTKEVKEENRK
27 | 96 | – | Chryseobacterium sp-62563 propeptide V25C (protein) NQDPNLVAKESNETAMKDFGKTVPCGIEKEDGKFKISFMVTAQPYEIKDSKENAAYISMIKTAVENETPIHVFLKANTNEIAKVDKATDDDIRYFKSVFTKEVKEENRK
28 | 53 | 0 | Chryseobacterium sp-62563 propeptide K21G (protein) NQDPNLVAKESNETAMKDFGGTVPVGIEKEDGKFKISFMVTAQPYEIKDSKENAAYISMIKTAVENETPIHVFLKANTNEIAKVDKATDDDIRYFKSVFTKEVKEENRK
29 | 42 | – | Chryseobacterium sp-62563 propeptide S58P (protein) NQDPNLVAKESNETAMKDFGKTVPVGIEKEDGKFKISFMVTAQPYEIKDSKENAAYIPMIKTAVENETPIHVFLKANTNEIAKVDKATDDDIRYFKSVFTKEVKEENRK
30 | 56 | 0 | Chryseobacterium sp-62563 propeptide V23Y (protein) NQDPNLVAKESNETAMKDFGKTYPVGIEKEDGKFKISFMVTAQPYEIKDSKENAAYISMIKTAVENETPIHVFLKANTNEIAKVDKATDDDIRYFKSVFTKEVKEENRK
31 | > 100 | – | Chryseobacterium sp-62563 propeptide M39S (protein) NQDPNLVAKESNETAMKDFGKTVPVGIEKEDGKFKISFSVTAQPYEIKDSKENAAYISMIKTAVENETPIHVFLKANTNEIAKVDKATDDDIRYFKSVFTKEVKEENRK
32 | 45 | – | Chryseobacterium sp-62563 propeptide M39F (protein) NQDPNLVAKESNETAMKDFGKTVPVGIEKEDGKFKISFFVTAQPYEIKDSKENAAYISMIKTAVENETPIHVFLKANTNEIAKVDKATDDDIRYFKSVFTKEVKEENRK
